The target of experiment [1] is T1, human calcitonin receptor (human, UniProt P30988 25-474).
T1 construct: whole, on cells; Used as cell membranes; also called hCTR; hCT
T1 sequence (looked up): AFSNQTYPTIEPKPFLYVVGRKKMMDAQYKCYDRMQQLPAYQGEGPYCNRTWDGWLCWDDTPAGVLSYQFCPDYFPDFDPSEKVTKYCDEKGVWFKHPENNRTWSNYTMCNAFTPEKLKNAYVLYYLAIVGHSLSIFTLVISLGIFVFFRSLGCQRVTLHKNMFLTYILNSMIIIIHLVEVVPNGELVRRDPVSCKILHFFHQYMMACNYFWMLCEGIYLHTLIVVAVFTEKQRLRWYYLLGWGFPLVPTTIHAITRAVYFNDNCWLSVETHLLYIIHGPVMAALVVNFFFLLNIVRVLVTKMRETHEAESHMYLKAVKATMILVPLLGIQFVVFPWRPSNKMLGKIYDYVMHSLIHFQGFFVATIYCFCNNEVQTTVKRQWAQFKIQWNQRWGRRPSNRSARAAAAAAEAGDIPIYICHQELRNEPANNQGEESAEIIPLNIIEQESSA
In words: ratio of hCTR IC50 to hAmylin-R IC50 (reference: human amylin receptor). The essentials: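 Competition binding by SPA with cell membranes (35 ng/μL) and SPA beads in 50 mM Hepes pH 7.4 with 1 mM CaCl2, 5 mM MgCl2, 0.1% OA and 0.02% Tween20. Incubated 120 min at 25 °C with shaking, then counted.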

Experiment [2] addresses T2, human amylin receptor (amylin 3(a) receptor: human calcitonin receptor with RAMP-3) (human, UniProt P30988 25-474; O60896 24-148).
T2 construct: whole, on cells; Used as cell membranes of the Amylin 3(a)/CRE-luc BHK cells; the species of RAMP-3 is only implied by the name human amylin receptor; also called hAmylin-R; hAmylinR
T2 sequence (looked up) 1: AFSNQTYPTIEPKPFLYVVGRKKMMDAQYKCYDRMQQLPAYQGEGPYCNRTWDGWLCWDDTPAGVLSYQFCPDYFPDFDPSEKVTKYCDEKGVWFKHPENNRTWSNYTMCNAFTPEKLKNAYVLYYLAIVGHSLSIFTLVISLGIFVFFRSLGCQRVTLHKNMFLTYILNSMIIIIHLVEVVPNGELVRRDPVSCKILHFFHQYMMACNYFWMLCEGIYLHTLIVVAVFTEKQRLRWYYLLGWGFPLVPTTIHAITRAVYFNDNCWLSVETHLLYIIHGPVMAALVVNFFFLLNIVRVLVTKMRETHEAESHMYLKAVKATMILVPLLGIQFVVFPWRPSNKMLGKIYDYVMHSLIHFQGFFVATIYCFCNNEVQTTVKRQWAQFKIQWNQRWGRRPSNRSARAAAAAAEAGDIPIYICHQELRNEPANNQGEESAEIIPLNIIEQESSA
T2 sequence (looked up) 2: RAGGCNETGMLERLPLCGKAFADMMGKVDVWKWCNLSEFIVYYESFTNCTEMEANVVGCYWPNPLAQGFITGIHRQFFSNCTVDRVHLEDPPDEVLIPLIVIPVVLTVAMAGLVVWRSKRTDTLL
In words: SPA competition on BHK cell membranes, 125I-rat amylin as radioligand (Assay V). The method, then:
The binding assay was performed using scintillation proximity assay (SPA) beads (RPNQ0001) from PerkinElmer and cell membranes from the Amylin 3(a)/CRE-luc cells (as described in Assay (II)) were used. Membranes were prepared in the following way; the cells were rinsed with PBS and incubated with Versene for approximately 5 min before harvesting. The cells were flushed with PBS and the cell-suspension was centrifuged for 5 min at 1000 rpm. Cells were homogenized (ultrathurrax) in a buffer containing 20 mM Na-HEPES and 10 mM EDTA (pH 7.4) and centrifuged at 20.000 rpm for 15 min. The resulting pellet was resuspended, homogenized and centrifuged (20.000 rpm, 15 min) in a buffer containing 20 mM Na-HEPES and 0.1 mM EDTA (pH 7.4, buffer 2). The resulting pellet was resuspended in buffer 2 and protein concentration was measured (BCA protein Assay, Pierce). The homogenate was kept cold during the whole procedure. The membranes were kept at −80° C. until use. The assay was performed in a 384 well Optiplate (PerkinElmer) in a total volume of 40 ul. Membranes were mixed with SPA beads. Final concentration of membranes 35 ng/μL final and SPA beads was 0.05 mg/well. Test-compounds were dissolved in DMSO and further diluted in assay buffer (50 mM Hepes, pH 7.4, 1 mM CaCl2, 5 mM MgCl₂, 0.1% OA and 0.02% Tween20). […] The final mixture was incubated with shaking at 400 rpm for 120 min at 25° C. prior to centrifugation (1500 rpm, 10 min). Samples were analyzed on TopCounter™ (Packard). The IC₅₀ was calculated using (one site binding competition analysis) GraphPad Prism5 as a measure of receptor affinity.

The target of experiment [3] is T1, human calcitonin receptor. In words: SPA competition on BHK cell membranes, 125I-calcitonin as radioligand (Assay VII). The essentials: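 BHK hCTR membranes 35 ng/μL + SPA beads 0.05 mg/well; buffer 50 mM Hepes pH 7.4, 1 mM CaCl2, 5 mM MgCl₂, 0.1% OA, 0.02% Tween20. 120 min, 25° C., shaking. Scintillation count; IC50 by one-site binding competition.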

Numbered stars: 1 amine (or outer) side, 2 acyl side, 3 side chain; on linkers, the order of the positions; unused ones are H or OH. Bridge positions count the residues as written; N and C are the ends. Side chains are listed from the residue outwards. Ends that are not written are not given here. * marks the point of attachment. C20 diacid = O=C(O)CCCCCCCCCCCCCCCCCCC(=O)*; γGlu = O=C(O)[C@H](CCC(=O)[*:2])N[*:1]; AEEA = NCCOCCOCC(=O)O

B1: N^ε1-[2-[2-[2-[[2-[2-[2-[[(4S)-4-carboxy-4-(19-carboxynonadecanoylamino)butanoyl]amino]ethoxy]ethoxy]acetyl]amino]ethoxy]ethoxy]acetyl]-[Arg17,Pro21,Pro27,Arg34 … (peptide)
peptide: K([AEEA-AEEA-γGlu-C20 diacid])CNTATCATQRLANFLRHSSPNFGAIPSSTNVGRNTY-NH2
modifications: disulfide 2-7; N-terminus assumed
SMILES: CC[C@H](C)[C@H](NC(=O)[C@H](C)NC(=O)CNC(=O)[C@H](Cc1ccccc1)NC(=O)[C@H](CC(N)=O)NC(=O)[C@@H]1CCCN1C(=O)[C@H](CO)NC(=O)[C@H](CO)NC(=O)[C@H](Cc1c[nH]cn1)NC(=O)[C@H](CCCNC(=N)N)NC(=O)[C@H](CC(C)C)NC(=O)[C@H](Cc1ccccc1)NC(=O)[C@H](CC(N)=O)NC(=O)[C@H](C)NC(=O)[C@H](CC(C)C)NC(=O)[C@H](CCCNC(=N)N)NC(=O)[C@H](CCC(N)=O)NC(=O)[C@@H](NC(=O)[C@H](C)NC(=O)[C@@H]1CSSC[C@H](NC(=O)[C@@H](N)CCCCNC(=O)COCCOCCNC(=O)COCCOCCNC(=O)CC[C@H](NC(=O)CCCCCCCCCCCCCCCCCCC(=O)O)C(=O)O)C(=O)N[C@@H](CC(N)=O)C(=O)N[C@@H]([C@@H](C)O)C(=O)N[C@@H](C)C(=O)N[C@@H]([C@@H](C)O)C(=O)N1)[C@@H](C)O)C(=O)N1CCC[C@H]1C(=O)N[C@@H](CO)C(=O)N[C@@H](CO)C(=O)N[C@H](C(=O)N[C@@H](CC(N)=O)C(=O)N[C@H](C(=O)NCC(=O)N[C@@H](CCCNC(=N)N)C(=O)N[C@@H](CC(N)=O)C(=O)N[C@H](C(=O)N[C@@H](Cc1ccc(O)cc1)C(N)=O)[C@@H](C)O)C(C)C)[C@@H](C)O
notes: also called compound 95
Consider B1, for which the “Ratio hCT/hAmylin binding” value in experiment [1] is 63.4. Further, the 50% inhibitory concentration (IC50) amounted to 0.967 nM in experiment [2] and 61.3 nM in experiment [3].

B2: N^ε1-[(4S)-4-carboxy-4-[[(4S)-4-carboxy-4-(19-carboxynonadecanoylamino)butanoyl]amino]butanoyl]-[Glu14,Arg17,Pro21,Pro27,Arg35]-h-amylin (peptide)
peptide: K([γGlu-γGlu-C20 diacid])CNTATCATQRLAEFLRHSSPNFGAIPSSTNVGSRTY-NH2
modifications: disulfide 2-7; N-terminus assumed
SMILES: CC[C@H](C)[C@H](NC(=O)[C@H](C)NC(=O)CNC(=O)[C@H](Cc1ccccc1)NC(=O)[C@H](CC(N)=O)NC(=O)[C@@H]1CCCN1C(=O)[C@H](CO)NC(=O)[C@H](CO)NC(=O)[C@H](Cc1c[nH]cn1)NC(=O)[C@H](CCCNC(=N)N)NC(=O)[C@H](CC(C)C)NC(=O)[C@H](Cc1ccccc1)NC(=O)[C@H](CCC(=O)O)NC(=O)[C@H](C)NC(=O)[C@H](CC(C)C)NC(=O)[C@H](CCCNC(=N)N)NC(=O)[C@H](CCC(N)=O)NC(=O)[C@@H](NC(=O)[C@H](C)NC(=O)[C@@H]1CSSC[C@H](NC(=O)[C@@H](N)CCCCNC(=O)CC[C@H](NC(=O)CC[C@H](NC(=O)CCCCCCCCCCCCCCCCCCC(=O)O)C(=O)O)C(=O)O)C(=O)N[C@@H](CC(N)=O)C(=O)N[C@@H]([C@@H](C)O)C(=O)N[C@@H](C)C(=O)N[C@@H]([C@@H](C)O)C(=O)N1)[C@@H](C)O)C(=O)N1CCC[C@H]1C(=O)N[C@@H](CO)C(=O)N[C@@H](CO)C(=O)N[C@H](C(=O)N[C@@H](CC(N)=O)C(=O)N[C@H](C(=O)NCC(=O)N[C@@H](CO)C(=O)N[C@@H](CCCNC(=N)N)C(=O)N[C@H](C(=O)N[C@@H](Cc1ccc(O)cc1)C(N)=O)[C@@H](C)O)C(C)C)[C@@H](C)O
notes: also called compound 89
In the case of B2, the “Ratio hCT/hAmylin binding” value in experiment [1] is 28. For the same molecule, the half-inhibitory concentration (IC50) worked out at 1.16 nM in experiment [2] and 32.5 nM in experiment [3].

B3: N^ε1-[(4S)-4-carboxy-4-(19-carboxynonadecanoylamino)butanoyl]-[His14,Arg17,Pro21,Pro27,Arg34]-h-amylin (peptide)
peptide: K([γGlu-C20 diacid])CNTATCATQRLAHFLRHSSPNFGAIPSSTNVGRNTY-NH2
modifications: disulfide 2-7; N-terminus assumed
SMILES: CC[C@H](C)[C@H](NC(=O)[C@H](C)NC(=O)CNC(=O)[C@H](Cc1ccccc1)NC(=O)[C@H](CC(N)=O)NC(=O)[C@@H]1CCCN1C(=O)[C@H](CO)NC(=O)[C@H](CO)NC(=O)[C@H](Cc1c[nH]cn1)NC(=O)[C@H](CCCNC(=N)N)NC(=O)[C@H](CC(C)C)NC(=O)[C@H](Cc1ccccc1)NC(=O)[C@H](Cc1c[nH]cn1)NC(=O)[C@H](C)NC(=O)[C@H](CC(C)C)NC(=O)[C@H](CCCNC(=N)N)NC(=O)[C@H](CCC(N)=O)NC(=O)[C@@H](NC(=O)[C@H](C)NC(=O)[C@@H]1CSSC[C@H](NC(=O)[C@@H](N)CCCCNC(=O)CC[C@H](NC(=O)CCCCCCCCCCCCCCCCCCC(=O)O)C(=O)O)C(=O)N[C@@H](CC(N)=O)C(=O)N[C@@H]([C@@H](C)O)C(=O)N[C@@H](C)C(=O)N[C@@H]([C@@H](C)O)C(=O)N1)[C@@H](C)O)C(=O)N1CCC[C@H]1C(=O)N[C@@H](CO)C(=O)N[C@@H](CO)C(=O)N[C@H](C(=O)N[C@@H](CC(N)=O)C(=O)N[C@H](C(=O)NCC(=O)N[C@@H](CCCNC(=N)N)C(=O)N[C@@H](CC(N)=O)C(=O)N[C@H](C(=O)N[C@@H](Cc1ccc(O)cc1)C(N)=O)[C@@H](C)O)C(C)C)[C@@H](C)O
notes: also called compound 85
For B3, the “Ratio hCT/hAmylin binding” value in experiment [1] amounted to 91.8. Further, the figures for the half-maximal inhibitory concentration (IC50) in experiment [2] and in experiment [3] were 0.876 nM and 80.4 nM, respectively.

B4: N^ε1-[(4S)-4-carboxy-4-(19-carboxynonadecanoylamino)butanoyl]-[Arg14,Arg17,Pro21,Pro27]-h-amylin (peptide)
peptide: K([γGlu-C20 diacid])CNTATCATQRLARFLRHSSPNFGAIPSSTNVGSNTY-NH2
modifications: disulfide 2-7; N-terminus assumed
SMILES: CC[C@H](C)[C@H](NC(=O)[C@H](C)NC(=O)CNC(=O)[C@H](Cc1ccccc1)NC(=O)[C@H](CC(N)=O)NC(=O)[C@@H]1CCCN1C(=O)[C@H](CO)NC(=O)[C@H](CO)NC(=O)[C@H](Cc1c[nH]cn1)NC(=O)[C@H](CCCNC(=N)N)NC(=O)[C@H](CC(C)C)NC(=O)[C@H](Cc1ccccc1)NC(=O)[C@H](CCCNC(=N)N)NC(=O)[C@H](C)NC(=O)[C@H](CC(C)C)NC(=O)[C@H](CCCNC(=N)N)NC(=O)[C@H](CCC(N)=O)NC(=O)[C@@H](NC(=O)[C@H](C)NC(=O)[C@@H]1CSSC[C@H](NC(=O)[C@@H](N)CCCCNC(=O)CC[C@H](NC(=O)CCCCCCCCCCCCCCCCCCC(=O)O)C(=O)O)C(=O)N[C@@H](CC(N)=O)C(=O)N[C@@H]([C@@H](C)O)C(=O)N[C@@H](C)C(=O)N[C@@H]([C@@H](C)O)C(=O)N1)[C@@H](C)O)C(=O)N1CCC[C@H]1C(=O)N[C@@H](CO)C(=O)N[C@@H](CO)C(=O)N[C@H](C(=O)N[C@@H](CC(N)=O)C(=O)N[C@H](C(=O)NCC(=O)N[C@@H](CO)C(=O)N[C@@H](CC(N)=O)C(=O)N[C@H](C(=O)N[C@@H](Cc1ccc(O)cc1)C(N)=O)[C@@H](C)O)C(C)C)[C@@H](C)O
notes: also called compound 83
As for B4, the “Ratio hCT/hAmylin binding” value in experiment [1] was found to be 146. Moreover, the IC50 in experiment [2] came out at 0.939 nM; in experiment [3], 137 nM.

The IC50 is the concentration needed to halve the response being measured.

The values above are taken from patent US20140087995A1 (published 2014).
